Source: US10272233B2, “Method to fabricate polymeric microneedles” (National University of Singapore, priority 2012, dated 2019)

Legend:
[1] = cited from earlier work
[2] = In vitro release of rhodamine B from microneedle arrays in 1×PBS at 37° C.; assay type: physicochemical; details: within the first hour, rhodamine B encapsulated in PEGDA microneedles and backing layer
Experimental: Encapsulation of a Model Drug: Imaging and In Vitro Release Rhodamine B was dissolved in the prepolymer solution at a concentration of 0.09, 0.17 and 0.44 weight %, respectively. The drug-laden microneedle samples were imaged using a fluorescence stereomicroscope (Nikon, Japan). The amount of drug encapsulated in the microneedles was calculated from the percent weight of the drugs in the prepolymer solution and the weight of fabricated microneedles. Selective incorporation of rhodamine B in the backing layer or microneedle shafts was made possible by using the prepolymer solutions containing the model drug to fabricate the backing layer or microneedles respectively. In vitro release of rhodamine B was tested by suspending fabricated microneedle arrays in 15 ml of 1×PBS, at 37° C. and sampled at regular intervals. At each sampling point, the whole 15 ml of release medium was withdrawn and replaced with 15 ml of fresh 1×PBS. The samples were stored at 4° C. before analysis. The amount released was quantified by measuring rhodamine B fluorescence at excitation and emission wavelengths of 554 nm and 586 nm, respectively, with a Tecan 2000 microplate reader (Tecan, Austria). In Vitro Permeation Through Rat Skin

[3] = Collagen permeation through microneedle pretreated rat skin (confocal fluorescence); assay type: in vitro ADME
Experimental: Microneedles of the longest range of length were inserted into excised rat abdominal skin. Hair and fat were removed as mentioned previously. The skin was fully stretched on a thin layer of PDMS to mimic tissue-like mechanical support. A force of 10 N was applied using the digital force gauge (Dillon GL, USA) for 2 minutes. Bovine skin collagen type 1, FITC conjugate (MW=300 kDa) of concentrations 0.025, 0.050 and 0.075% w/v was obtained by diluting the stock collagen solution (0.1% w/v) withappropriate amount of 0.1 M Tris-HCl buffer (pH 7.8) containing 0.4 M NaCl, 10 mM CaCl2 and 0.25 M glucose. NaCl and CaCl2 aid in stabilizing the collagen molecules and glucose is added to prevent gelation of the collagen fibers. Each collagen concentration was applied to separate skin samples at the area of insertion. The time of contact between the collagen solution and the skin was kept constant at 4 hours at room temperature, after which excess collagen on the skin surface was removed using Kimwipe (Kimberly-Clark, Roswell, Ga.). The degree of permeation of collagen through the skin was quantified by using the A-1R confocal microscope (Nikon, Japan) to observe the fluorescence intensity of collagen type 1, FITC conjugate at excitation and emission wavelengths of 490 nm and 520 nm respectively. […]

[4] = Circular dichroism, secondary structure stability of BSA in microneedles; assay type: physicochemical; details: far UV CD 260-200 nm; microneedle release samples stored 3 days at 37° C.; degraded control: 75° C. or pH 2
Experimental: Circular dichroism (CD) spectroscopy was performed on the samples to evaluate the secondary structural characteristics of bovine serum albumin in the fabricated microneedles. The analysis was performed in a Jasco J-810 spectropolarimeter (Jasco, Tokyo, Japan) with a 1 mm light path quartz cell (Helima, Müllheim, Germany). Data was acquired at a bandwidth of 0.1 nm with a scan speed of 50 nm/min and a response time of 8 seconds. […] The microneedle release samples were first filtered using micro-centrifugal concentrators, (30 kDa cut-off) (Vivaspin 20, GE, UK) to separate the protein from polymer. Average value from triplicate measurements was used to plot the curve of molar ellipticity to wavelength. Molar ellipticity was calculated using the following equation: […]
The percentage of α-helix was calculated from the following equation
[formula] Tertiary Structure Stability

[5] = Fluorescence spectroscopy, tertiary structure stability of BSA in microneedles; assay type: physicochemical; details: excitation 280 nm
Experimental: In order to evaluate the tertiary structural changes in the protein conformation, fluorescence spectra was analyzed for protein samples. […] The emission spectra were studied in the range of 300-400 nm at a fixed excitation wavelength of 280 nm using a Hitachi F-7000 fluorescence spectrophotometer. The fluorescence intensities were plotted against wavelength as an average of triplicate measurements.

In the case of `O=C(O)CN(CC(=O)O)Cc1cc2c(cc1O)Oc1cc(O)c(CN(CC(=O)O)CC(=O)O)cc1C21OC(=O)c2ccccc21` [calcein], the “log P” value [1] is given as −5.02.
In the case of `CCN(CC)c1ccc2c(-c3ccccc3C(=O)O)c3ccc(=[N+](CC)CC)cc-3oc2c1.[Cl-]` [rhodamine B, Rhodamine B], the “log P” value [1] is given as 2.43 and the encapsulated drug released [2] is given as about 30%.
For “bovine collagen type 1, FITC conjugate: model macromolecule, MW=300 kDa, applied to microneedle pretreated skin”, the “diffusion of collagen molecules after treatment of skin with microneedles” value [3] was “greatly enhanced”.
For “degraded BSA: BSA degraded by heating at 75° C. and under acidic conditions of pH 2”, the “secondary structure / ellipticity by circular dichroism” value [4] was “significantly lower ellipticity values” and the fluorescence ([5]; BSA denatured using heat or acid, emission 300-400 nm) was “did not show any fluorescence”.
Molecule “standard solution of BSA: standard BSA solution 0.026 mg/ml in purified water” has an emission maximum ([5]; standard BSA solution, scanned 300-400 nm) of 338 nm.
